According to patent US20240115729A1, “COMPOSITIONS AND METHODS FOR TARGETED ANTIFIBROTIC THERAPY IN CHRONIC PANCREATITIS” (University of Virginia Patent Foundation, priority 2021, published 2024):

Assays:
Assay in all cases: IF colocalization (JACoP) of VT680 phage with marker, CP mouse pancreas sections
[1] = molecular target: cytokeratin 7 (CK-7) (mouse) (UniProt Q9DCV7)
[2] = molecular target: carboxypeptidase A1 (CPA1) (mouse) (UniProt Q7TPZ8)
F4/80 (mouse) = F4/80 (mouse) (UniProt Q61549)
CD31 (mouse) = CD31 (mouse) (UniProt Q08481)
collagen IIIa (mouse) = collagen IIIa (mouse) (UniProt P08121)
UniProt P08121, sequence (P08121 155-1219): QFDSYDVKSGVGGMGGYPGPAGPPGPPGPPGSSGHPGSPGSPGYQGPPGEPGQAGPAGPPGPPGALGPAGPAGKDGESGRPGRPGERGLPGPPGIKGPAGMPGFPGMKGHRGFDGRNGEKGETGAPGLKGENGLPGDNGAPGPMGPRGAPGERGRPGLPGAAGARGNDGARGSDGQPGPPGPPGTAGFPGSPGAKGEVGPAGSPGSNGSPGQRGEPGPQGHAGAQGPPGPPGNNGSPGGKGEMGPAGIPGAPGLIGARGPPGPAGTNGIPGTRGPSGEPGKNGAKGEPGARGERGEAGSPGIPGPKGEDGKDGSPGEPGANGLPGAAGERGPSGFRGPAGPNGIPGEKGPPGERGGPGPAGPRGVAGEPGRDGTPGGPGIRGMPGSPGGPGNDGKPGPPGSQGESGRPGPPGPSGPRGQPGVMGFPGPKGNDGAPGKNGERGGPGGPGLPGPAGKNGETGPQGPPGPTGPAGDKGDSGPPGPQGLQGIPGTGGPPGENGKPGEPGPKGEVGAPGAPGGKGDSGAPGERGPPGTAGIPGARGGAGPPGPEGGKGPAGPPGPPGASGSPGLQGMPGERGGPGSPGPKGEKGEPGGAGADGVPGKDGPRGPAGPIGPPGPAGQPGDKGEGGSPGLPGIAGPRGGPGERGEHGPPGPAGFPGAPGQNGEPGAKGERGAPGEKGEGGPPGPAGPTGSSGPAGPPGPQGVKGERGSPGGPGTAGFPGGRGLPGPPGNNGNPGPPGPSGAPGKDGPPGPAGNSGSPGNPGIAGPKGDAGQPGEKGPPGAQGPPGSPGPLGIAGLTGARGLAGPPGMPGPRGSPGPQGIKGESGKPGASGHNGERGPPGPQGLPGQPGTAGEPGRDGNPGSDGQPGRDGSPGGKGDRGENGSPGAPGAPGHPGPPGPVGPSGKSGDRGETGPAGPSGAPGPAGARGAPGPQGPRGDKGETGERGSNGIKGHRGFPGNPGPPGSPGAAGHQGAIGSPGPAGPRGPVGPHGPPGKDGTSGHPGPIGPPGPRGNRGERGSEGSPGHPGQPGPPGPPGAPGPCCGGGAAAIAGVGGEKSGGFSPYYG

UniProt Q7TPZ8, sequence (Q7TPZ8 111-419): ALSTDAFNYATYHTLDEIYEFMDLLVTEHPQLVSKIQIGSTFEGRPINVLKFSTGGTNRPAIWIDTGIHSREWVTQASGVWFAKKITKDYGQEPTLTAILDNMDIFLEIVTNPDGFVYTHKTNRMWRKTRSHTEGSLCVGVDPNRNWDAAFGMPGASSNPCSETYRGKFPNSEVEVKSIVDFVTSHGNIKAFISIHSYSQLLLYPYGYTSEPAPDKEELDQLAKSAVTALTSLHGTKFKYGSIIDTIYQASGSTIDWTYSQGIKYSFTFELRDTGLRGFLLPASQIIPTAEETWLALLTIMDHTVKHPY
UniProt Q08481, sequence (Q08481 18-727): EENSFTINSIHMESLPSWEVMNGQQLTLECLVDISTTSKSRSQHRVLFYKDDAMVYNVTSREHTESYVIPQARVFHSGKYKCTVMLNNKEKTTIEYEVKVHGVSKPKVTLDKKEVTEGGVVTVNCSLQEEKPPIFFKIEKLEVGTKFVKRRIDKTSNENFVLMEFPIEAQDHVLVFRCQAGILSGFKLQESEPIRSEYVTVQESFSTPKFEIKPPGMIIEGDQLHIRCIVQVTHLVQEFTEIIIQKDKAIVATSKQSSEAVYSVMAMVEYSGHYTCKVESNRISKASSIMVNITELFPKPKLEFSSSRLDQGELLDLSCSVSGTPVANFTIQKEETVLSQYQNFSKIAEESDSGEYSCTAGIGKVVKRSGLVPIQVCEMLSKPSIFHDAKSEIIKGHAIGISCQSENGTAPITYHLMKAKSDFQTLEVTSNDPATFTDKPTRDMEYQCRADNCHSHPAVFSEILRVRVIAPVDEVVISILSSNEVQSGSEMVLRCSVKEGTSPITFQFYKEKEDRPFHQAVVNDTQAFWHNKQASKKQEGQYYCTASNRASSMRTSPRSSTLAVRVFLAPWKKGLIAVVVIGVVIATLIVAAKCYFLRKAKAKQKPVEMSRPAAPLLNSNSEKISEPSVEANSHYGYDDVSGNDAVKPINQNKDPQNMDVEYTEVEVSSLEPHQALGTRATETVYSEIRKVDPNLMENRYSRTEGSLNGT
UniProt Q9DCV7, sequence (Q9DCV7 2-457): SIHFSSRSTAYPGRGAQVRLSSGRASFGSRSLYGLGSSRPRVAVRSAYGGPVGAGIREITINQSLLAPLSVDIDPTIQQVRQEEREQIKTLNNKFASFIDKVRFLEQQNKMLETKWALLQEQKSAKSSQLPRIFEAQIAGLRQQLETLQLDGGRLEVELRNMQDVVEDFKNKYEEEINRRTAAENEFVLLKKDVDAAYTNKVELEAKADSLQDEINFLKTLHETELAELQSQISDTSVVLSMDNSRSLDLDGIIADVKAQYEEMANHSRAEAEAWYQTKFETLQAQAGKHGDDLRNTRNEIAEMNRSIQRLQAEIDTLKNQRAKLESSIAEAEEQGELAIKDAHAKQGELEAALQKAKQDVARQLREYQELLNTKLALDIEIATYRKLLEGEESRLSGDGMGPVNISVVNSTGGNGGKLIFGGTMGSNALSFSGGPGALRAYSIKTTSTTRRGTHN
UniProt Q61549, sequence (Q61549 28-931): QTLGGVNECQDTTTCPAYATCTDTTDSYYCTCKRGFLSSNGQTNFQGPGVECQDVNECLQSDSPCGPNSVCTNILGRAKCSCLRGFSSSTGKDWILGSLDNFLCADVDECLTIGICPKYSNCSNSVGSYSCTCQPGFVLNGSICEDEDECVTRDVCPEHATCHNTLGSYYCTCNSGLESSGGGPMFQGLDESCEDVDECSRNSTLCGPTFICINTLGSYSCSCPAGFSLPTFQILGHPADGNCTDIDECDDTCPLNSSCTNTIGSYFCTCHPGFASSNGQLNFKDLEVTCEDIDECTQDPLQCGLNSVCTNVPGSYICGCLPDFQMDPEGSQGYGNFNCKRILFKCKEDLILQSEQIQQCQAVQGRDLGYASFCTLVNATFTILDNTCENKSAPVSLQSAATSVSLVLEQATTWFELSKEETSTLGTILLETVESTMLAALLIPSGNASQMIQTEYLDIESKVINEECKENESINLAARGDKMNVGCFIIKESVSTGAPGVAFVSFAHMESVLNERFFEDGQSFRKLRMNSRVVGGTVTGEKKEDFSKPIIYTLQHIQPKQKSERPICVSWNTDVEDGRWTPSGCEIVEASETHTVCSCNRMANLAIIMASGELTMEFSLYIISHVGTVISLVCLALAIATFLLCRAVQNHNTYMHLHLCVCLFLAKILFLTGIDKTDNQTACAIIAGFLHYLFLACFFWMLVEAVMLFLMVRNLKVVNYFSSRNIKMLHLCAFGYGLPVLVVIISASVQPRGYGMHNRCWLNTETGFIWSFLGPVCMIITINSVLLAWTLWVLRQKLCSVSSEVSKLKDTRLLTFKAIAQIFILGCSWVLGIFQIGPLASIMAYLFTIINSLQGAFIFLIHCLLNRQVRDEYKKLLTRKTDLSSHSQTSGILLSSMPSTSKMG

Q: Which results are given for “SLTNSSF (SEQ ID NO: 27) phage clone (peptide)”?
A: mean Manders' correlation coefficient (MCC), fraction of phage overlapping cell marker [1]: 0.11; mean Manders' correlation coefficient (MCC), fraction of phage overlapping cell marker [2]: 0.22; mean Manders' correlation coefficient (MCC), fraction of phage overlapping cell marker (F4/80 (mouse)): 0.8; mean Manders' correlation coefficient (MCC), fraction of phage overlapping cell marker (CD31 (mouse)): 0.13; mean Manders' correlation coefficient (MCC), fraction of phage overlapping cell marker (collagen IIIa (mouse)): 0.33
